Key:
[1] = target: NM, the N-terminal and middle region of Saccharomyces cerevisiae Sup35 (soluble, unpolymerized) (Saccharomyces cerevisiae) (UniProt P05453); experiment: cell-based or functional assay
[2] = target: Rnq1 preformed fibers (sonicated seed) (Saccharomyces cerevisiae) (UniProt P25367); experiment: cell-based or functional assay
[3] = target: biotinylated NM^K184C seed (fibers) (Saccharomyces cerevisiae) (UniProt P05453); experiment: capture of biotinylated seed (50% w/w) on Streptavidin-coated Dynabeads, SDS wash, scintillation counting
Sequence of biotinylated NM^K184C seed (fibers) (Saccharomyces cerevisiae) (P05453 1-253 K184C): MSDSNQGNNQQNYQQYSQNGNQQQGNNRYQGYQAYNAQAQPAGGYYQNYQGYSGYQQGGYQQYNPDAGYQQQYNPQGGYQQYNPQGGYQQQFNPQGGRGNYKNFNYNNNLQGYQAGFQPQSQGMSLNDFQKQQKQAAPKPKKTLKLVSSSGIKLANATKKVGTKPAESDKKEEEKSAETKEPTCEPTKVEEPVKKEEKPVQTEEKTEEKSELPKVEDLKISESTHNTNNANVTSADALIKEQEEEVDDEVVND

Substance: Hsp104 (yeast protein-remodeling factor, AAA+ family), His-tag removed (from UniProt P31539 1-908) (enzyme)
- inhibition of NM fibrillization, no nucleotide [1]: 7.6 µM
- inhibition of NM fibrillization, with ADP [1]: 3.1 µM
- inhibition of NM fibrillization, with AMP-PNP [1]: 0.2 µM
- inhibition of NM fibrillization, with ATP hydrolysis [1]: 0.1 µM

Substance: Rnq1 (purified recombinant, soluble) (from UniProt P25367 1-405)
- lag time of Thioflavin T fluorescence with 2% preformed fibers [2]: 4.3 h

Substance: soluble NM^T158C-iodo[1-14C]acetamide (from UniProt P05453 1-253)
- fraction of seed-bound NM soluble in SDS at early time points [3]: 50%
